Measured values reported in patent publication US20240327510A1, “DRUG FOR PREVENTING, ALLEVIATING OR TREATING MUCOSAL ADHESION AND USE THEREOF” (SHANGHAI SYNVIDA BIOTECHNOLOGY CO. LTD., priority 2021, published 2024).

Tests used:
[1] = system: subcutaneous mucosal fibroblasts; assay: TGFβ activated mucosal fibroblasts treated with antibody: hydroxyproline in supernatant and QPCR of Col7a1, ACTA2; assay type: cell-based, humanized Pear1 mice; conditions: 1 μg/mL antibody, 10 ng/mL TGFβ, 48 hours; versus control group
Procedure: After the treatment of starvation in cultured mucosal or subcutaneous derived fibroblasts for 12 hours, 1 μg/mL anti-human Pear1 monoclonal antibody (including LF2 antibody or hLF105 antibody) was added separately to treat the cells. After 30 minutes, 10 ng/mL TGFβ was added to treat the cells for 48 hours, then the cell supernatant was collected. The content of hydroxyproline was detected using the hydroxyproline detection kit of Nanjing Jiancheng Biology Co., Ltd. according to the instructions.
Mucosal fibroblasts in Method 5 were collected. Total mRNA was extracted by Trizol method (Invitrogen, Carlsbad, CA) according to standard protocols. Complementary DNA was synthesized using reverse transcriptase (Takara). ABI7000 Real-time PCR instrument (Life Technologies) was used to detect gene expression and the PCR primer sequences are shown in Table 5. The 18sRNA gene was used as an internal reference.
To further investigate the role of targeting Pear1 in inhibiting mucosal fibroblast activation, subcutaneous mucosal fibroblasts were isolated from humanized Pear1 mice and cultured in vitro. TGFβ activated fibroblasts were treated with anti-human Pear1 monoclonal antibodies (including LF2 or hLF105) for 48 hours, and the supernatants were collected to detect the content of hydroxyproline. The cells were collected for QPCR to detect the expression levels of extracellular matrix proteins such as collagen 7a1 (Col 7a1) and smooth muscle actin a2 (ACTA2) to characterize fibroblast activation and collagen synthesis.

humanized Pear1 mice [2] = assay: Peritoneal adhesion model, determination of hydroxyproline in tissues; assay type: in vivo; conditions: versus control group
From the text: (§1) The model was made in humanized mice within 3 cm from the caecums of vermiform in peritoneal cavity, following the methods in the literature (Zhiliang Zhang, et al., Characteristics of genesis and development of peritoneal adhesion by different causes: experiment with rats, Chinese Journal of Medicine, 2005). The mice were divided into 3 groups. groups, with 20 mice in each group: A, control group with normal saline; B, prophylactic intraperitoneal injection of anti-human Pear1 monoclonal antibody (including LF2 or hLF105 antibody) 0.5 mg/kg, once a week; C, prophylactic intraperitoneal injection of anti-human Pear1 monoclonal antibody 1 mg/kg, once a week. After the mice were euthanized at 2 time points of 2 weeks and 4 weeks, an inverted “U”-shaped incision was selected to enter the abdomen, avoiding the original surgical incision. […] And the degree of adhesion in the peritoneal adhesion model was evaluated.
(§2) For fibroblast-specific Pear1 knockout mice, a peritoneal adhesion model was used to form a sham operation on the mice. The model preparation and animal grouping were as described above.
The formation of tissue adhesion depends on the synthesis of collagen and hydroxyproline is the precursor of collagen synthesis. […]

humanized Pear1 mice [3] = assay: Peritoneal adhesion model, indicators related to adhesion (immunohistochemistry or RT-PCR); assay type: in vivo; conditions: versus control group
From the text: as §1, §2
Immunohistochemistry or RT-PCR was used to measure some indicators related to adhesion formation to reflect the severity of adhesion, such as: fibrinogen (FIB), α-smooth actin (α-SMA), MMPs/TIMPs, transforming growth factor (TGF-β1), vascular endothelial growth factor (VEGF).

humanized Pear1 mice [4] = assay: Peritoneal adhesion model, BhatiaDS score; assay type: in vivo; set-up: key to BhatiaDS score: grade 0: no adhesion; grade I: adhesive area of the area treated in the caecums of vermiform/total area of the treated area<50%, easy for blunt separation; grade II: above-mentioned area ratio≥50%, easy for blunt dissection; Grade III: Regardless of the size of the adhesive area, as long as the adhesion is difficult to separate, blunt separation can still be performed, but the intestinal wall is obviously damaged after separation; Grade IV: Regardless of the size of the adhesive area, as long as the adhesion is firm and can no longer be bluntly separated, required sharp separation
From the text: The model was made in humanized mice within 3 cm from the caecums of vermiform in peritoneal cavity, following the methods in the literature (Zhiliang Zhang, et al., Characteristics of genesis and development of peritoneal adhesion by different causes: experiment with rats, Chinese Journal of Medicine, 2005). The mice were divided into 3 groups. groups, with 20 mice in each group: A, control group with normal saline; B, prophylactic intraperitoneal injection of anti-human Pear1 monoclonal antibody (including LF2 or hLF105 antibody) 0.5 mg/kg, once a week; C, prophylactic intraperitoneal injection of anti-human Pear1 monoclonal antibody 1 mg/kg, once a week. After the mice were euthanized at 2 time points of 2 weeks and 4 weeks, an inverted “U”-shaped incision was selected to enter the abdomen, avoiding the original surgical incision. […] And the degree of adhesion in the peritoneal adhesion model was evaluated. […]
According to the scoring standard of BhatiaDS, grade 0: no adhesion; grade I: adhesive area of the area treated in the caecums of vermiform/total area of the treated area<50%, easy for blunt separation; grade II: above-mentioned area ratio≥50%, easy for blunt dissection; Grade III: Regardless of the size of the adhesive area, as long as the adhesion is difficult to separate, blunt separation can still be performed, but the intestinal wall is obviously damaged after separation; Grade IV: Regardless of the size of the adhesive area, as long as the adhesion is firm and can no longer be bluntly separated, required sharp separation. Each mouse was scored by 3 people respectively, and the average value was taken as the score of adhesion in this sample.

humanized Pear1 mice [5] = assay: Subcutaneous mucosal adhesion model, HE and Masson staining at wounded site; assay type: in vivo; conditions: 5 micrograms at the wounded site every 7 days; 14th day; versus control group
From the text: Mice were anesthetized by intraperitoneal injection of pentobarbital sodium. The hair is depilated and sterilized, and the skin is excised. A thin layer of bonding agent was applied to one side of the silicone plate to fix the wound concentrically with a clamping board. Each clamping board was sutured at regular intervals with eight stitches to secure it to the intact tissue around the wound, preventing contraction of the wound edges. Sterile dressings were cut into circular shapes and attached to the silicone board for protecting the wound, preventing the animals from scratching or chewing. The anti-human Pear1 monoclonal antibody was […].
Mice were anesthetized using isoflurane, maintaining a flow of 2% isoflurane. The sterile dressings on the silicone board were peeled off (or not peeled off). Pictures were taken at the wounded sites next to the fixed position and scale bar. If necessary, sterile dressings can be reapplied. Image J was used to process the photos. The wounded area can be calculated according to the circled area by the scale.
[…] were fixed in 4% paraformaldehyde for 48 hours, after paraffin embedding, a semi-automatic rotary slicing machine (Leica; rm2235 and cm1950) was used for slicing, dewaxing is carried out at room temperature, gradient ethanol is used for rehydration, HE and Masson staining were then performed.
Subsequently, in order to detect the role of targeting Pear1 in inhibiting adhesion formation in vivo, the inventors constructed an adhesion model in humanized Pear1 mice, and at the same time instilled anti-human Pear1 monoclonal antibodies (including LF2 or hLF105) each at a dose of 5 micrograms at the wounded site, with once administration every 7 days. On the 14th day, the subcutaneous mucosal tissue at the wounded site was removed, stained with HE and Masson, and photographed under a microscope. The thickness of the subcutaneous mucosa and skin and the area of collagen were counted by Image J software for indicating the formation of adhesions.

B1: hLF105: humanized anti-human Pear1 antibody; VH SEQ ID NO: 8, VL SEQ ID NO: 22 (antibody, V domains shown)
VH: QVQLVQSGAEVKKPGASVKVSCKASGYTFTGYPMNWVRQAPGKRLEWMGVINPYNGGTSYNQKFKGRATLTVDTSASTAYMELSSLRSEDTAVYYCARGGVRPFAYWGQGTLVTVSS
VL: DIQMTQSPSSLSASVGDRVTITCKASEDIYNRLAWYQQKPGKAPKLLISGATSLETGVPSRFSGSGSGNDFTLTISSLQPEDFATYYCQQYWSTPTFGQGTKLEIK
ability to synthesize extracellular matrix [1]: inhibited | activation of fibroblasts [1]: inhibited | hydroxyproline content in tissues (humanized Pear1 mice [2]): significantly lower | indicators related to adhesion (FIB, α-SMA, MMPs/TIMPs, TGF-β1, VEGF) (humanized Pear1 mice [3]): significantly lower | BhatiaDS score (humanized Pear1 mice [4]; 0.5 mg/kg intraperitoneal once a week, 2 weeks (n = 8)): II (grade II: above-mentioned area ratio≥50%, easy for blunt dissection) | BhatiaDS score (humanized Pear1 mice [4]; 0.5 mg/kg intraperitoneal once a week, 4 weeks (n = 8)): I (grade I: adhesive area of the area treated in the caecums of vermiform/total area of the treated area<50%, easy for blunt separation) | BhatiaDS score (humanized Pear1 mice [4]; 1.0 mg/kg intraperitoneal once a week, 2 weeks (n = 8)): III | BhatiaDS score (humanized Pear1 mice [4]; 1.0 mg/kg intraperitoneal once a week, 4 weeks (n = 8)): II (grade II: above-mentioned area ratio≥50%, easy for blunt dissection) | BhatiaDS score compared with the control group (humanized Pear1 mice [4]; versus control group, especially in the high-dose group (1.0 mg/kg)): significantly lower | collagen deposition in the subcutaneous mucosa at wounded sites (Masson staining) (humanized Pear1 mice [5]): less collagen deposition | dermal thickness at wounded sites (HE staining) (humanized Pear1 mice [5]): smaller dermal thickness | fibroblasts at wounded sites (HE staining) (humanized Pear1 mice [5]): fewer fibroblasts
